These results are taken from article PMC3171962.

The assay addresses hisPcrH (Pseudomonas aeruginosa T3S chaperone PcrH with an N-terminal polyHis tag) (P. aeruginosa PAO1) (UniProt Q9I325). Nature of the assay: SEC.

Usually stoichiometry N stands for the number of molecules, sites or subunits per partner or assembly. As for “PopB (native, untagged P. aeruginosa T3S translocator) (from UniProt Q9I324 1-390) (natural protein)”, the stoichiometry N worked out at 1.
With “PopD (native, untagged P. aeruginosa T3S translocator) (from UniProt Q9I323 1-295) (natural protein)” the figure was 1.
